This data set concerns the molecule itself. Kind of data set: FRET or BRET; in vitro intermolecular FRET; equimolar mixture of the CFP-X-CFP and YFP-X-YFP fusions, total protein 10 nM, kinetic buffer (50 mM Tris-HCl pH 7.0, 125 mM NaCl, 0.01% Tween-20, 1 mM DTT) with 22.5% PEG 3350, 1 h at 30 °C; excitation 400 nm, ratio R of emission at 530 nm/485 nm. For orientation: In BRET a luciferase serves as donor, and the signal depends on an acceptor being close.

Where a chain is given by its changes, count along the chain named.

B1: TC45^E/A (TC45 with 378KRKRPR383 mutated into 378EAAAPE383), fused at both termini to CFP (CFP-TC45^E/A-CFP) or to YFP (YFP-TC45^E/A-YFP), bacterially expressed (enzyme, UniProt P17706-2 1-387, looked up)
chain: MPTTIEREFEELDTQRRWQPLYLEIRNESHDYPHRVAKFPENRNRNRYRDVSPYDHSRVKLQNAENDYINASLVDIEEAQRSYILTQGPLPNTCCHFWLMVWQQKTKAVVMLNRIVEKESVKCAQYWPTDDQEMLFKETGFSVKLLSEDVKSYYTVHLLQLENINSGETRTISHFHYTTWPDFGVPESPASFLNFLFKVRESGSLNPDHGPAVIHCSAGIGRSGTFSLVDTCLVLMEKGDDINIKQVLLNMRKYRMGLIQTPDQLRFSYMAIIEGAKCIKGDSSIQKRWKELSKEDLSPAFDHSPNKIMTEKYNGNRIGLEEEKLTGDRCTGLSSKMQDTMEENSESALRKRIREDRKATTAQKVQQMKQRLNENEREAAAPELTDT
notes: The His6 tag and its thrombin cleavage are described in general for the pET28 constructs and the purification; also called C-EA-C; Y-EA-Y; not shown: His6, N-terminal, cleaved; CFP (one copy) or YFP (the other copy), N-terminal, kept; CFP (one copy) or YFP (the other copy), C-terminal, kept
For B1, the binding result is “binds”.

B2: T-cell protein tyrosine phosphatase, 45 kDa form (TC45), wild type, fused at both termini to CFP (CFP-TC45-CFP) or to YFP (YFP-TC45-YFP), bacterially expressed (enzyme, UniProt P17706-2 1-387, looked up)
chain: B1 chain with E378K, A379R, A380K, A381R, E383R
notes: T-cell protein tyrosine phosphatase (TC-PTP, encoded by PTPN2), 45 kDa form TC45, full-length ORF; the printed residues 377RKRKRPR383 near the C terminus fit the 387-residue TC45 isoform; Self-association was tested with an equimolar mixture of two differently labelled copies: CFP-TC45-CFP and YFP-TC45-YFP; The His6 tag and its thrombin cleavage are described in general for the pET28 constructs …
On to B2, for which the binding result is recorded as “binds”.
